Data on two molecules can be found in patent US20250333486A1, “Anti-HSP90 alpha antibody and uses thereof” (NATIONAL HEALTH RESEARCH INSTITUTES, priority 2021, published 2025).

The test system of test [1] is SW620, PANC-1, and Panc 02 cells. Kind of test: Cell spheroid-forming assay, rHSP90α-induced gain-of-stemness. The class given is cell-based, human and mouse. Particulars: SW620, PANC-1, Panc 02; 15 μg/ml rHSP90α plus 10 μg/ml antibody. How it is done: One thousand cancer cells were seeded onto each well of 24-well plates pre-coated with a 4-mm thick layer of 0.5% agarose. After incubation 24 h with serum-free medium at 37° C. plus a 5% CO2 humidified atmosphere, cells were added with PBS or 15 μg/ml of rHSP90α in the absence or presence of 10 μg/ml of control IgG or the tested anti-HSP90α antibody. The incubation was kept for 10-14 days with supplements of some fresh serum-free medium every 3 days. Finally, the cell spheroids characterized by tight, non-adherent, and >100 μm in diameter were photographed and counted under an Olympus IX 71 inverted microscope (Center Valley, PA, USA). The spheroid formation % was calculated by the formula: (number of cell spheroids/1000)×100%.

Test [2] concerns the target T1, HSP90α (Homo sapiens, UniProt P07900).
T1 construct: The full-length HSP90α (a.a. 1-732) and its 3 truncated fragments; 8×His; made in house; host or cells: Escherichia coli ClearColi, pET-23a
Kind of test: Epitope determination by ELISA (domain, peptide and alanine scanning). The class given is binding. Particulars: full-length and truncated HSP90α. The source says:
The full-length HSP90α (a.a. 1-732) and its 3 truncated fragments including the N-terminal plus Linker domains (a.a. 1-272), N terminus through Middle domain (a.a. 1-629), and C-terminal domain (a.a. 630-732) were cloned, expressed, and purified. Briefly, each cDNA sequence with a 8×His-tag was amplified by PCR from the human ORF Clone (NM_005348) with the primers containing Xho I and BamH I sites. The PCR products were purified, digested with restriction enzymes, and then inserted into pET-23a plasmid (Sigma-Aldrich). The recombinant plasmids were then transformed into Escherichia coli ClearColi® competent cells (Lucigen Co., Middleton, WI, USA), and expressions of the recombinant constructs were stimulated by the addition of isopropyl-D-thiogalacto-pyranoside. The expressed histidine-tagged full-length and truncated HSP90α were further purified by using the Ni—NTA column (Qiagen, Germantown, MD, USA) according to the manufacturer's instructions. The purified proteins were finally dialyzed against the storage buffer consisting of 25 mM Tris-HCl (pH, 7.0), 50 mM NaCl, 0.1% Triton X-100, 50% glycerol, 1 mM EDTA, and 1 mM DTT, and protein concentrations were determined by the Bradford protein assay (Bio-Rad Laboratories, Hercules, USA).
At first, the domain scanning strategy was used to roughly delineate the HSP90α region responsible for the binding with our prepared antibodies. […]
On the technique in general: ELISA stands for enzyme-linked immunosorbent assay.

In test [3] the target is T2, associations of CD91 with HSP90α and IKKα (Homo sapiens, UniProt P07900).
T2 construct: recombinant 732-amino acid (a.a.) full-length human HSP90α (rHSP90α; PeproTech Co., Cranbury, NJ, USA); purchased PeproTech Co., Cranbury, NJ, USA; host or cells: PANC-1 cells (CD91 and IKKα endogenous)
Kind of test: Proximity ligation assay (PLA) in PANC-1 cells. The class given is cell-based. Conditions: 15 μg/ml rHSP90α, 10 μg/ml antibody. On the procedure: PANC-1 cells seeded onto glass coverslips at a density of 2×10^5 cells per 22×22-mm coverslip were incubated 16 h with 0.5% serum-containing medium at 37° C. plus a 5% CO2 humidified atmosphere. The cells were then added with PBS or 15 μg/ml of rHSP90α in the absence or presence of 10 μg/ml of control IgG or the tested anti-HSP90α antibody for another 24-h incubation. The treated cells were then fixed with 3% paraformaldehyde and blocked with the blocking solution provided in the Duolink in situ PLA kit (Olink Bioscience, Uppsala, Sweden). Furthermore, the cell samples were incubated overnight at 4° C. with anti-CD91 antibody (1:80, cat. #550495, BD Biosciences, San Jose, CA, USA) mixed with anti-HSP90α antibody (1:80, cat. #AHP-1339, AbD Serotec, Raleigh, NC, USA) or anti-IKKα antibody (1:80, cat. #3285, Epitomics Co., Burlingame, CA, USA). After washed trice with Tris-buffered saline plus 0.05% Tween 20, the cell samples were incubated with PLA probes for the subsequent ligation and amplification procedure according to the manufacturer's instructions for the Duolink in situ PLA kit. Finally, nuclei were counterstained with 4′,6′-diamidino-2-phenylindole (DAPI; Sigma-Aldrich). Images were photographed and analyzed using Leica TCS SP5 II confocal microscope and LAS AF Lite 4.0 software (Leica, Wetzlar, Germany).

Test [4] deals with T3, rHSP90α (Homo sapiens, UniProt P07900).
T3 construct: recombinant 732-amino acid (a.a.) full-length human HSP90α (rHSP90α; PeproTech Co., Cranbury, NJ, USA); purchased PeproTech Co., Cranbury, NJ, USA
The test can be described thus: ELISA for HSP90α-binding activities. Particulars: culture supernatants of six hybridoma clones. How it is done: For assaying the HSP90α-binding activities of the prepared antibodies, 96-well plates were coated with 12.5 ng/ml of rHSP90α in the capture buffer (BioLegend, San Diego, CA, USA) by overnight incubation at 4° C. The coated plates were washed twice with PBST and then blocked with PBST plus 3% bovine serum albumin (BSA). The prepared antibodies were applied and incubated 2 h at room temperature. After three washes with PBST, horseradish peroxidase-conjugated secondary antibody was added and incubated at 37° C. for another 1 h. After three washes, 0.3 mg/ml of 3,3′,5,5′-tetramethylbenzidine in 0.015% H2O2 was added into each well and incubated in the dark at room temperature for 10 min. The reactions were stopped by the addition of 0.5 M H2SO4, and OD450 values were measured by an Infinite M200 microplate reader (TECAN, Männedorf, Switzerland). Additionally, the immunoglobulin (IgG) isotype characterization of anti-HSP90α antibodies was performed by using the Mouse Ig Isotyping ELISA Ready-Set-Go!™ Kit (eBioscience™, Thermo Fisher Scientific, Waltham, MA, USA). The ELISA protocol was also used to assay the secreted HSP90α levels of mouse serum samples as described previously. See Chen J S, Hsu Y M, Chen C C, Chen L L, Lee C C, Huang T S. Secreted heat shock protein 90α induces colorectal cancer cell invasion through CD91/LRP-1 and NF-κB-mediated integrin αV expression. […]

For test [5], the system named is SW620 and PANC-1 cells. Kind of test: Transwell invasion assay, rHSP90α-induced cancer cell invasion. The class given is cell-based, human. Conditions: SW620 and PANC-1, 15 μg/ml rHSP90α plus 10 μg/ml antibody. How it is done:
(§1) In a 37° C. and 5% CO2 humidified incubator, cancer cells were subjected to serum starvation in 0.5% FBS-containing medium for 16 h, and then added with PBS or 15 μg/ml of rHSP90α in the absence or presence of 10 μg/ml of control IgG or the tested anti-HSP90α antibody. After another 24 h, the treated cells were harvested as aliquots (1×10^5 cells per aliquot) in 0.5% FBS-containing culture medium, and then each aliquot was seeded into a top chamber of Transwell inserts pre-coated with 5-fold diluted Matrigel (BD Biosciences). Cells were allowed 16 h to invade through the Matrigel toward the bottom chambers containing culture medium plus 10% FBS. The filters of the Transwell inserts were then fixed and stained with Giemsa. Invasive cells on the lower side of filters were photographed using the Axiovert S100/AxioCam HR microscope system (Carl Zeiss, Oberkochen, Germany) and further quantified by the Image-Pro Plus software (Media Cybernetics, Inc., Silver Spring, MD, USA).

Test [6] concerns PANC-1 cells. Kind of test: Transwell invasion assay, rHSP90α-induced PANC-1 invasion. Type of test: cell-based, human. Particulars: 15 μg/ml rHSP90α plus 10 μg/ml antibody. On the procedure: as §1, with “with PBS or 15 μg/ml of rHSP90α in the absence or presence of 10 μg/ml of control IgG or the tested anti-HSP90α antibody.” left out

B1: Clone-2: mouse anti-HSP90α monoclonal antibody, IgG2b κ; VH SEQ ID NO: 2, VL SEQ ID NO: 7 (antibody, V domains shown)
VH: EVQVVESGGGLVQPKGSLKLSCAASGFTFKTYAMNWVRQAPGKGLEWVARIRSKSRNYATYYADSVKDRFTISRDDSQFMFYLQMNNLKTEDTAMYYCVVGGSGFDYWGQGTTLTVSS
VL: DVLMTQTPLSLPVSLGDQASISCRSSQSIVHSNGNTYLEWYLQKPGQSPKLLIYKVGVPDRFSGSGSGTDFTLSISRVEAGDLGVYYCFQGSHVPWTFGGGTKLEIK
modifications: Heavy chain variable region; Light chain variable region
For B1, in test [1], the “rHSP90α-induced spheroid-forming ability (gain-of-stemness)” value is reported as “significantly inhibited”. Also, the “HSP90α region bound (domain scanning)” value in test [2] is listed as “bound to the a.a. 1-272 region as well as the full-length protein”. Also, in test [3], the “blocking of the binding of eHSP90α with its cell-surface receptor CD91” value was “efficiently blocked” and the “blocking of the downstream association of CD91 with IKKα” value is “efficiently blocked”. For the same molecule, in test [4], the “HSP90α-binding levels (ELISA)” value was “top two HSP90α-binding levels”. Also, in test [5], the “rHSP90α-induced cancer cell invasion” value is “drastically abolished”.

B2: Clone-2-chimera: recombinant IgG1 antibody: Clone-2 VH and VL with human IgG constant domains (antibody, V domains shown)
VH: B1 VH
VL: DVLMTQTPLSLPVSLGDQASISCRSSQSIVHSNGNTYLEWYLQKPGQSPKLLIYKVSNRFSGVPDRFSGSGSGTDFTLSISRVEAGDLGVYYCFQGSHVPWTFGGGTKLEIK
With B2, in test [6], the “suppression of rHSP90α-induced invasiveness of PANC-1 cells” value is “superior to Clone-2-hB, Clone-2-hC, and their parental Clone-2”.
